Data on 1 substance can be found in US20220119789A1.

This assay addresses Trx-VL(NP)-GUS(IV-5)KW (Escherichia coli). In words: cell-based or functional assay.

For PentaHis antibody (QIAGEN), the average S/B ratio in 11 minutes after the beginning of reaction (GUS activity) is 13 and the average S/B ratio in 20 minutes after the beginning of reaction (GUS activity) came to 42.3.
